B1: PB-721 (peptide)
peptide: HSQGTFTSDYSKYLDSRRAQDFVQWLMNTC
modifications: not fully specified; mPEG-23 KD-ppMAL conjugated to PB-740 (cysteine added after the 29th amino acid)

Molecular target: glucagon receptor
Experiment: cell-based or functional assay

Binder | In Vitro EC50 (cAMP release, HEK293 cells stably expressing the glucagon receptor, cAMP ELISA) [nM]
B1 | 6.94
HSQGTFTSDYSKYLDSRRAQDFVQWLMNTC [PB-740] | 1.45

From patent US20190134161A1 (PEGBIO, published 2019)
